Laboratory results: article PMC12105186 (Cell Communication and Signaling : CCS, 2025)
“And” between values parts separate entries of the source, which are not always exact repeats. Equal entries are not always repeated.

Key:
[1] = target: N-terminally 6×His-tagged AB region of hRXRγ (human); experiment: MST
AUC = target: the molecule itself; experiment: AUC
SEC-MALS = target: the molecule itself; experiment: SEC-MALS

| Molecule | Kd [1] | stoichiometry N (AUC) | stoichiometry N (SEC-MALS) |
| --- | --- | --- | --- |
| deletion mutant of human RXRγ lacking the AB region (ΔABhRXRγ) (from UniProt P48443 128-463) (domain or fragment) | 11.1 µM | – | – |
| full-length human retinoid X receptor γ (hRXRγ) (receptor, UniProt P48443 1-463, looked up) MYGNYSHFMKFPAGYGGSPGHTGSTSMSPSAALSTGKPMDSHPSYTDTPVSAPRTLSAVGTPLNALGSPYRVITSAMGPPSGALAAPPGINLVAPPSSQLNVVNSVSSSEDIKPLPGLPGIGNMNYPSTSPGSLVKHICAICGDRSSGKHYGVYSCEGCKGFFKRTIRKDLIYTCRDNKDCLIDKRQRNRCQYCRYQKCLVMGMKREAVQEERQRSRERAESEAECATSGHEDMPVERILEAELAVEPKTESYGDMNMENSTNDPVTNICHAADKQLFTLVEWAKRIPHFSDLTLEDQVILLRAGWNELLIASFSHRSVSVQDGILLATGLHVHRSSAHSAGVGSIFDRVLTELVSKMKDMQMDKSELGCLRAIVLFNPDAKGLSNPSEVETLREKVYATLEAYTKQKYPEQPGRFAKLLLRLPALRSIGLKCLEHLFFFKLIGDTPIDTFLMEMLETPLQIT | – | 5 | – |
| deletion mutant of human RXRγ lacking the AB region (ΔABhRXRγ) (domain or fragment, UniProt P48443 128-463, looked up) STSPGSLVKHICAICGDRSSGKHYGVYSCEGCKGFFKRTIRKDLIYTCRDNKDCLIDKRQRNRCQYCRYQKCLVMGMKREAVQEERQRSRERAESEAECATSGHEDMPVERILEAELAVEPKTESYGDMNMENSTNDPVTNICHAADKQLFTLVEWAKRIPHFSDLTLEDQVILLRAGWNELLIASFSHRSVSVQDGILLATGLHVHRSSAHSAGVGSIFDRVLTELVSKMKDMQMDKSELGCLRAIVLFNPDAKGLSNPSEVETLREKVYATLEAYTKQKYPEQPGRFAKLLLRLPALRSIGLKCLEHLFFFKLIGDTPIDTFLMEMLETPLQIT | – | 2 and 6 | 4 |
